From doi:10.1101/2024.12.23.630100 (bioRxiv, 2024)
Blank lines part the entries; values can stand above or below the binder they belong to. Square brackets hold non-standard residues; d marks the D form. Ends that are not written are not given here. pY = N[C@@H](Cc1ccc(OP(=O)(O)O)cc1)C(=O)O

Tests used:
[1] = target: T1, SHP2 C-SH2 domain 102-220 (human, UniProt Q06124 102-220); assay: ITC
T1 sequence (looked up): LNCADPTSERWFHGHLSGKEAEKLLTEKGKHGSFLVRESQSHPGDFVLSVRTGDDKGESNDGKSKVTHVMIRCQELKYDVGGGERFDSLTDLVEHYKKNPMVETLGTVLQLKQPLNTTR

[2] = target: T2, SHP2 tandem domain N-SH2-C-SH2-SHP2 1-222 (human, UniProt Q06124 1-222); assay: ITC
T2 sequence (looked up): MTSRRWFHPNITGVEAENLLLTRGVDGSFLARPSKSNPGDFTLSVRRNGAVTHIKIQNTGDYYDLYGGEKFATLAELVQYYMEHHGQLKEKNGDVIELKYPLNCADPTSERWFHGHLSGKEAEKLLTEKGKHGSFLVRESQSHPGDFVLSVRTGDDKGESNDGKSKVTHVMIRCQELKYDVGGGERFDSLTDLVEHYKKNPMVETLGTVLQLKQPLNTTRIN

fold reduction of affinity against pY659-Gab1 655-677 [1]: 10 fold
Binder: ERVD[pY]VVVDQQK (peptide, UniProt Q13480 655-666, looked up) [pY659-Gab1 655-666 monophosphorylated peptide (C-terminally truncated)]

Kd [1]: 4000 nM
Binder: ERVD[pY]VVVDQQKTLALKSTREAW (peptide, UniProt Q13480 655-677, looked up) [pY659-Gab1 655-677 monophosphorylated peptide]

Kd [2]: 37 ± 13 nM
B1: pY627pY659-Gab1 613-694 (bis-phosphorylated fragment of Grb2-associated binding protein 1) (peptide, UniProt Q13480 613-694, looked up)
chain: SSPMIKPKGDKQVEYLDLDLDSGKSTPPRKQKSSGSGSSVADERVDYVVVDQQKTLALKSTREAWTDGRQSTESETPAKSVK
modifications: phosphotyrosine at 627 and 659
